Results as given in US20210363269A1 (ALX ONCOLOGY, published 2021).
Positions count from the first letter of the chain named. One block for each binder: values may come before it.

Key:
[1] = biological target: T1, BL6 mouse SIRP-α (mouse (C57BL/6 strain), UniProt P97797 32-148); assay: SPR, antibody on GLC chip
T1 construct: also called C57BL/6
T1 sequence: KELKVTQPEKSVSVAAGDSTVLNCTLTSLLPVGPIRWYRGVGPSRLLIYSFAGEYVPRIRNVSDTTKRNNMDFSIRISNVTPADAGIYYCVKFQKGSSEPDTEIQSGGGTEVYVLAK
Outline: (§1)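 Protein A-purified antibodies were diluted to 80 nM in 10 mM sodium acetate pH 4.5 and amine-coupled (~1000 RU) to a GLC chip of a ProteOn XPR36 biosensor. SIRP analytes were injected one-shot at 100, 33, 11, 3.7, 1.2 and 0 nM in PBS pH 7.4 with 0.01% Tween-20 at 25° C. Association ran 90 s at 100 μL/min and dissociation 1200 s. KD came from double-referenced data fitted globally to a Langmuir model, as kd/ka.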

[2] = biological target: T2, NOD mouse SIRP-α (mouse (NOD strain)); assay: SPR, antibody on GLC chip
T2 chain: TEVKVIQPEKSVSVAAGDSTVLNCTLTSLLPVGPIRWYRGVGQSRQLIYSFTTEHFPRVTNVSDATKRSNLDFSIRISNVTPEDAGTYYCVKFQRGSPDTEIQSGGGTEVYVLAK
Outline: as §1

[3] = biological target: T3, human SIRP-α v1 (human, UniProt P78324 31-149); assay: SPR, antibody on GLC chip
T3 construct: also called Human v1; Human V1
Outline: as §1

[4] = biological target: T4, human SIRP-α v2 (human); assay: SPR, antibody on GLC chip
T4 construct: also called Human v2; Human V2
Outline: as §1

[5] = biological target: T5, BALBc mouse SIRP-α (mouse (BALB/c strain)); assay: SPR, antibody on GLC chip
T5 chain: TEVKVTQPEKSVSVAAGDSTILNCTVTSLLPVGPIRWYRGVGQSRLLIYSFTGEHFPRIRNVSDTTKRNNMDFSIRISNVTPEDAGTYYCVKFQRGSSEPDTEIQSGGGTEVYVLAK
Outline: as §1

[6] = biological target: T6, human SIRPγ isoform 1 (human, UniProt Q9P1W8 29-147); assay: SPR, antibody on GLC chip
T6 construct: also called Gamma; Human SIRPg
Outline: as §1

[7] = biological target: T7, cynomolgus SIRP-α (cynomolgus monkey, UniProt Q5TFQ8 30-148 (human entry), limits assumed); assay: SPR
T7 construct: also called cyno1
T7 chain: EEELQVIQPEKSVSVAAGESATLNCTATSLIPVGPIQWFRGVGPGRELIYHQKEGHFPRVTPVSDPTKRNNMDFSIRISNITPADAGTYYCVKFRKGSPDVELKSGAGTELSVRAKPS
Outline: (§2)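 KD values were derived as kd/ka from apparent rate constants obtained by globally fitting double-referenced data to a simple Langmuir model. The data came from a ProteOn XPR36 biosensor run at 25° C in PBS pH 7.4 with 0.01% Tween-20. There, purified antibodies sat on a GLC chip by amine coupling or on an NLC chip by biotinylated Protein A capture, and SIRP analytes were injected in one-shot kinetic mode at nominal concentrations set from A280 absorbance.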

[8] = biological target: T3, human SIRP-α v1; assay: SPR
Outline: as §2

[9] = biological target: T4, human SIRP-α v2; assay: SPR
Outline: as §2

[10] = biological target: T5, BALBc mouse SIRP-α; assay: SPR
Outline: as §2

[11] = biological target: T6, human SIRPγ isoform 1; assay: SPR
Outline: as §2

T6 sequence (Q9P1W8 29-147 limits assumed): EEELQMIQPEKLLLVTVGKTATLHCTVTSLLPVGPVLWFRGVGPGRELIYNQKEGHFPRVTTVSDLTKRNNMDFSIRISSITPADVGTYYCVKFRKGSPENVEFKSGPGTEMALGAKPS
T3 sequence (P78324 31-149 limits assumed): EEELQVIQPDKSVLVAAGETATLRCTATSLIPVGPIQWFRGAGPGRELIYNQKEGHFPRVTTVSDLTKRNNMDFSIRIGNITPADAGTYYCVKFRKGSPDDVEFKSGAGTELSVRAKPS
T4 sequence (chain, as listed by the source limits assumed): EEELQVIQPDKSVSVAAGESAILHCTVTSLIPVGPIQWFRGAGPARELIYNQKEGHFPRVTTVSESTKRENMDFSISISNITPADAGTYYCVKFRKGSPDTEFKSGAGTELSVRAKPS

B5: antibody 136 variant, light chain Mut_Q38E / heavy chain Mut (antibody, V domains shown)
VH: EVQLVESGGGVVQPGRSLRLSCAASGFTFSSYDVNWVRQAPGKGLEWVSLISGSGEIIYYADSVKGRFTISRDNSKNTLYLQMNSLRAEDTAVYYCAKENNRYRFFDDWGQGTLVTVSS
VL: EIVLTQSPGTLSLSPGERATLSCRASQSVYTYLAWYQEKPGQAPRLLIYGASSRATGIPDRFSGSGSGTEFTLTISSLQSEDFAVYYCQQYYDRPPLTFGGGTKVEIK
Kd [1]: 33.1 nM
Kd [2]: 5.98 nM
Kd [3]: 6.18 nM
Kd [4]: 12.5 nM
Kd [5]: 2.98 nM
Kd [6]: 19.3 nM

B6: Hum1/AB21_HC_wt (antibody, V domains shown)
VH: DVQLVESGGGVVRPGESLRLSCAASGFTFSSNAMSWVRQAPGKGLEWLAGISAGGSDTYYPASVKGRFTISRDNSKNTLYLQMNTLTAEDTAVYYCARETWNHLFDYWGLGTLVTVSS
VL: SYELTQPPSVSVSPGQTARITCSGGSYSSYYYAWYQQKPGQAPVTLIYSDDKRPSNIPERFSGSSSGTTVTLTISGVQAEDEADYYCGGYDQSSYTNPFGGGTKLTVL
koff [7]: 0.000395 s⁻¹
koff [8]: 0.000193 s⁻¹
koff [9]: 0.000303 s⁻¹
koff [10]: 0.00291 s⁻¹
koff [11]: 0.000188 s⁻¹

B7: Hum3/AB66_HC_wt (antibody, V domains shown)
VH: B6 VH with N32Y, P61I, A62D, S75P, T78S, N84S, T85S
VL: SYELTQPPSVSVSPGQTARITCSGGDYYSTYYAWYQQKPGQAPVTVIHSDDKRPSDIPERFSGSSSGTTVTLTISGVQAEDEADYYCGGYDGRTYINTFGGGTKLTVL
koff [7]: 0.000306 s⁻¹
koff [8]: 0.000124 s⁻¹
koff [9]: 0.000287 s⁻¹
koff [10]: 0.00205 s⁻¹
koff [11]: 0.000135 s⁻¹

More lines, in order of falling Kd [1], values ahead:

Kd [1]: 32.6 nM
Kd [2]: 4.12 nM
Kd [3]: 7.28 nM
Kd [4]: 17.4 nM
Kd [5]: 2.8 nM
Kd [6]: 19.6 nM
B1: antibody 136 variant, light chain Mut / heavy chain wt (antibody, V domains shown)
VH: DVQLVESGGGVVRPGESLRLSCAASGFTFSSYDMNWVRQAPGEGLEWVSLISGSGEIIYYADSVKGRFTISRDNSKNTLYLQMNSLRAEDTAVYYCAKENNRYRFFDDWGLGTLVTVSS
VL: B5 VL with E38Q

Kd [1]: 31.7 nM
Kd [2]: 5.21 nM
Kd [3]: 7.29 nM
Kd [4]: 19.5 nM
Kd [5]: 3.14 nM
Kd [6]: 1.68 nM
B3: antibody 136 variant, light chain Mut / heavy chain Mut (antibody, V domains shown)
VH: B5 VH
VL: B5 VL with E38Q

Kd [1]: 16.3 nM
Kd [2]: 2.85 nM
Kd [3]: 4.88 nM
Kd [4]: 10.5 nM
Kd [5]: 2.09 nM
Kd [6]: 66.7 nM
B2: antibody 136 variant, light chain Mut_S12T / heavy chain Mut (antibody, V domains shown)
VH: B5 VH
VL: B5 VL with S12T, E38Q

Kd [1]: 13.3 nM
Kd [2]: 2.44 nM
Kd [3]: 4.99 nM
Kd [4]: 8.28 nM
Kd [5]: 1.64 nM
Kd [6]: 61.7 nM
B4: antibody 136 variant, light chain Mut_S22T / heavy chain Mut (antibody, V domains shown)
VH: B5 VH
VL: B5 VL with S22T, E38Q
